# In IntAct's records for PubMed 18723617:
# B1: Motility protein B (Salmonella typhimurium), P55892 (parent)
# chain: MKNQAHPIVVVKRRRHKPHGGGAHGSWKIAYADFMTAMMAFFLVMWLISISSPKELIQIAEYFRTPLATAVTGGNRIANSESPIPGGGDDYTQQQGEVEKQPNIDELKKRMEQSRLNKLRGDLDQLIESDPKLRALRPHLKIDLVQEGLRIQIIDSQNRPMFKTGSAEVEPYMRDILRAIAPVLNGIPNRISLAGHTDDFPYANGEKGYSNWELSADRANASRRELVAGGLDNGKVLRVVGMAATMRLSDRGPDDAINRRISLLVLNKQAEQAILHENAESQNEPVSVLQQPAAAPPASVPTSPKAEPR
# partner: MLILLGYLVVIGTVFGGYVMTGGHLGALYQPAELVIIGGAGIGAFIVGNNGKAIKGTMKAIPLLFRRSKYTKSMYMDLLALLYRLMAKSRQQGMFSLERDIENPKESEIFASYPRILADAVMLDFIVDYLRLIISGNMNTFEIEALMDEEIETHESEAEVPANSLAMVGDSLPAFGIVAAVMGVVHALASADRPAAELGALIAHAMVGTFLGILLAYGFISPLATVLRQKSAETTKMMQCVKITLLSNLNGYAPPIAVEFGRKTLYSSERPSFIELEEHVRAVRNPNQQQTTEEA
# Variants of: B1
# Settings: with mota_salty motA
row,Variant,effect of a mutation on the interaction
1,MKNQAHPIVVVKRRRHKPHGGGAHGSWKIAYAEFMTAMMAFFLVMWLISISSPKELIQIAEYFRTPLATAVTGGNRIANSESPIPGGGDDYTQQQGEVEKQPNIDELKKRMEQSRLNKLRGDLDQLIESDPKLRALRPHLKIDLVQEGLRIQIIDSQNRPMFKTGSAEVEPYMRDILRAIAPVLNGIPNRISLAGHTDDFPYANGEKGYSNWELSADRANASRRELVAGGLDNGKVLRVVGMAATMRLSDRGPDDAINRRISLLVLNKQAEQAILHENAESQNEPVSVLQQPAAAPPASVPTSPKAEPR [D33E],decreasing interaction strength
